Values belong to the molecule of their own block, whether it stands above or below them.
Columns and labels:
[1] = target: T1, SyPyk2 (Synechocystis pyruvate kinase 2) (Synechocystis sp. PCC 6803, UniProt P73534); assay: LDH-coupled assay, NADH oxidation at […] nm; assay type: biochemical
T1 construct: gene pyk2; synthesized gene in pGEX6P-1 (BamHI-XhoI), GST fusion from E. coli BL21, GST tag cut by PreScission protease; untagged 63 kDa
T1 sequence (P73534 1-591): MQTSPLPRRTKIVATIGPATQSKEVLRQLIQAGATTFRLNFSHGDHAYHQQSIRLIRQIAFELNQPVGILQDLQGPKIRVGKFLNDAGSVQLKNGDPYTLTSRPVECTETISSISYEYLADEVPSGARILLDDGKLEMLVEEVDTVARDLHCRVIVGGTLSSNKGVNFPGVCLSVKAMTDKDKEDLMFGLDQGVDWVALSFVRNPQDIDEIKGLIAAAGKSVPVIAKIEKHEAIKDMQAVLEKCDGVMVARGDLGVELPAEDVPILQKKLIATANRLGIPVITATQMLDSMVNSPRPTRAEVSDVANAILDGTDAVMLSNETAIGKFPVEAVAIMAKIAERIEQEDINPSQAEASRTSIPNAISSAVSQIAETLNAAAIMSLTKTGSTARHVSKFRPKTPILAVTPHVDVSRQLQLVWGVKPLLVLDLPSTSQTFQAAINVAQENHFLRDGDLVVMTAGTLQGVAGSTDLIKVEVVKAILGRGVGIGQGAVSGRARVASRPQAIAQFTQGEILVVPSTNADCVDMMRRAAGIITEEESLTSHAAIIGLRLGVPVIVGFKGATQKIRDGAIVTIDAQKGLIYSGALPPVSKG

[2] = target: T1, SyPyk2 (Synechocystis pyruvate kinase 2); assay: LDH-coupled assay, NADH oxidation at […] nm; assay type: biochemical; details: read-out: % activity at 1 mM
purified protein [3] = substrate: C=C(OP(=O)(O)O)C(=O)O; assay: purified protein; assay type: biochemical, Synechocystis sp. PCC 6803; details: 55 °C, pH 7.0 MES-NaOH, 2 mM ADP, 15 mM MgCl2, 100 mM KCl, no effector, sigmoidal (half-saturation, cooperative)
purified protein [4] = substrate: Nc1ncnc2c1ncn2[C@@H]1O[C@H](COP(=O)(O)OP(=O)(O)O)[C@@H](O)[C@H]1O; assay: purified protein; assay type: biochemical, Synechocystis sp. PCC 6803; details: 55 °C, pH 7.0 MES-NaOH, 5 mM PEP, 15 mM MgCl2, 100 mM KCl, hyperbolic

Molecule: Nc1ncnc2c1ncn2[C@@H]1O[C@H](COP(=O)(O)OP(=O)(O)OP(=O)(O)O)[C@@H](O)[C@H]1O [ATP, adenosine triphosphate]
IC50 [1]: 4.1 mM

B1: SyPyk2 (Synechocystis pyruvate kinase 2) (Synechocystis sp. PCC 6803 substr. Kazusa) (protein)
chain: MQTSPLPRRTKIVATIGPATQSKEVLRQLIQAGATTFRLNFSHGDHAYHQQSIRLIRQIAFELNQPVGILQDLQGPKIRVGKFLNDAGSVQLKNGDPYTLTSRPVECTETISSISYEYLADEVPSGARILLDDGKLEMLVEEVDTVARDLHCRVIVGGTLSSNKGVNFPGVCLSVKAMTDKDKEDLMFGLDQGVDWVALSFVRNPQDIDEIKGLIAAAGKSVPVIAKIEKHEAIKDMQAVLEKCDGVMVARGDLGVELPAEDVPILQKKLIATANRLGIPVITATQMLDSMVNSPRPTRAEVSDVANAILDGTDAVMLSNETAIGKFPVEAVAIMAKIAERIEQEDINPSQAEASRTSIPNAISSAVSQIAETLNAAAIMSLTKTGSTARHVSKFRPKTPILAVTPHVDVSRQLQLVWGVKPLLVLDLPSTSQTFQAAINVAQENHFLRDGDLVVMTAGTLQGVAGSTDLIKVEVVKAILGRGVGIGQGAVSGRARVASRPQAIAQFTQGEILVVPSTNADCVDMMRRAAGIITEEESLTSHAAIIGLRLGVPVIVGFKGATQKIRDGAIVTIDAQKGLIYSGALPPVSKG
notes: synthesized gene in pGEX6P-1 (BamHI-XhoI), GST fusion from E. coli BL21, GST tag cut by PreScission protease; untagged 63 kDa
Km (purified protein [3]): 1530 ± 70 µM
kcat (purified protein [3]): 253 ± 11 s⁻¹
kcat/Km (purified protein [3]): 166000 ± 3000 M⁻¹ s⁻¹
Km (purified protein [4]): 52.7 ± 7.6 µM
kcat (purified protein [4]): 251 ± 6 s⁻¹
kcat/Km (purified protein [4]): 4.84e+06 ± 733000 M⁻¹ s⁻¹

Other lines, results leading:

activity at 1000 µM [2]: ~200%
Molecule: O=P(O)(O)OC[C@H]1OC(O)[C@H](O)[C@@H](O)[C@@H]1O (stereo partly drawn) [G6P, glucose-6-phosphate]

activity at 1000 µM [2]: ~150%
Molecule: O=P(O)(O)OC[C@H]1OC(O)[C@H](O)[C@@H]1O (stereo partly drawn) [R5P, ribose-5-phosphate]

From publication PMC11101554, “Pyruvate kinase 2 from Synechocystis sp. PCC 6803 increased substrate affinity via glucose-6-phosphate and ribose-5-phosphate for phosphoenolpyruvate consumption” (Plant Molecular Biology, 2024)
